The data set concerns the molecule itself. The data set is described as follows: rheology (elastic modulus G'), P11-4 at 15 mg/ml in different buffers, 37 C; homotypic self-assembly. As for the experimental part:
P11-4 was prepared at 15 mg/ml with different buffer compositions (see below) measured at 0.1% strain, 37° C. and a frequency of 1 rad/second. Self-assembly of peptide monomers to polymers takes more than 5 min independent of the used ionic strength at neutral pH.

No end group written: not given here.

With QQRFEWEFEQQ (not fully specified; printed as Gln-Gln-Arg-Phe-Glu-Trp-Glu-Phe-Glu-Gln-Gln) [self-assembling peptide P11-4], the binding result is on record as “binds”.

The values are drawn from patent US20190142724A1 (CREDENTIS, published 2019).
